From patent US20190309050A1 (SUZHOU THINKING POWER BIOTECHNOLOGY, published 2019)
Each block holds one molecule with its values, some of them ahead of it.

Assays:
[1] = biological target: Robo1 protein (ORIGEN, Art. No.: TP327713) (UniProt Q9Y6N7); assay: SPR (BIAcore), Robo1 bound to CM5 chip; column headed 'Kd(nM)'
[2] = biological target: Robo1 protein (ORIGEN, Art. No.: TP327713) (UniProt Q9Y6N7); assay: ELISA, Robo1 coated at 1 µg/ml, detection with anti-HSA-HRP; stability test, samples 'after treatment' (treatment not described); after treatment (stability test), binding ELISA on coated Robo1
[3] = biological target: Robo1 protein (ORIGEN, Art. No.: TP327713) (UniProt Q9Y6N7); assay: SPR (BIAcore), Robo1 bound to CM5 chip
[4] = biological target: T1, Robo1 protein (ORIGEN, Art. No.: TP327713) (UniProt Q9Y6N7-5 1-1606, limits assumed); assay: SPR (BIAcore), Robo1 bound to CM5 chip; column headed 'KD(M)', by arithmetic the dissociation rate; exponent doubtful
T1 construct: Bought recombinant protein; also called receptor Robo1; receptor protein Robo1
T1 sequence (Q9Y6N7 other isoform, or with tags, fused parts or gaps limits assumed): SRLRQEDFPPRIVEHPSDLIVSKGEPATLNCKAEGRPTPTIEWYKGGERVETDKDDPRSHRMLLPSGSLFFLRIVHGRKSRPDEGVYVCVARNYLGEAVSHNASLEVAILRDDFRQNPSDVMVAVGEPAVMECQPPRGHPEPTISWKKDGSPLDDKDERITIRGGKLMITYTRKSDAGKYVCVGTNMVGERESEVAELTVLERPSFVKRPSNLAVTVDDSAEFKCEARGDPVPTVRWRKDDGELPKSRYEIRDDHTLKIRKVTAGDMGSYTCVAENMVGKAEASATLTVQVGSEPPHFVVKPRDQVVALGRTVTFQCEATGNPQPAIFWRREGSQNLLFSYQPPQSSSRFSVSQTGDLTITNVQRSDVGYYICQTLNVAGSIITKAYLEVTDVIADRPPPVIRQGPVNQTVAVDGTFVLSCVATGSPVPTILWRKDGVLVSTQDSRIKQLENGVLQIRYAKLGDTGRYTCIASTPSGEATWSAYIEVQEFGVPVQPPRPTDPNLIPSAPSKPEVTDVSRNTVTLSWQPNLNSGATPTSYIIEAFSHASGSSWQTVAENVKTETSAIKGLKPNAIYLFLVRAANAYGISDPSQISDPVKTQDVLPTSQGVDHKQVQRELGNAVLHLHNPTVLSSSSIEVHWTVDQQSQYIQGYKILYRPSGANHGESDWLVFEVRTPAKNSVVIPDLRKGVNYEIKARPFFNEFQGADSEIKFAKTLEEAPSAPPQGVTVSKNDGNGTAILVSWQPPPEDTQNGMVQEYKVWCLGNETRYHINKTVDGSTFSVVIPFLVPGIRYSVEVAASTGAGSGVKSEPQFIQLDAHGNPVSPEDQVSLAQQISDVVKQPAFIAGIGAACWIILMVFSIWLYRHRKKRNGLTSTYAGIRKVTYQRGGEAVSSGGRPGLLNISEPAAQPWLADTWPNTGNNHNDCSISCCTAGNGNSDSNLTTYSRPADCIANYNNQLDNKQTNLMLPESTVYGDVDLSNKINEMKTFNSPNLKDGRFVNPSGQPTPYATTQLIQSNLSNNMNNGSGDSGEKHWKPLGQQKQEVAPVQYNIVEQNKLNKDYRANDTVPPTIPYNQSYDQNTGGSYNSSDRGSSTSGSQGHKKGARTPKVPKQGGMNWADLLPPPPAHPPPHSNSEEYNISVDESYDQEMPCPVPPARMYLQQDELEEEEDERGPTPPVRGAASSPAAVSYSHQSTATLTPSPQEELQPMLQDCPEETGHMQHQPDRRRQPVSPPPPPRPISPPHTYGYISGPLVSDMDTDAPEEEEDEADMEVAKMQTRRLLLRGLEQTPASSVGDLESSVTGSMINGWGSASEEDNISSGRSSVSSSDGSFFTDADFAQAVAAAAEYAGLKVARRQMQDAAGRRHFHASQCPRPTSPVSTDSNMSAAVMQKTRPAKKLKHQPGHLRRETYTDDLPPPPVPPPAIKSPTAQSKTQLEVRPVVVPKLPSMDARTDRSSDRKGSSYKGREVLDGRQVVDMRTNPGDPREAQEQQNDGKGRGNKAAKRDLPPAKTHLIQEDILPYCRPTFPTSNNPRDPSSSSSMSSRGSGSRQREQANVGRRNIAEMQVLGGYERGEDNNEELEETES
Description: (§1) The affinity constant between the protein and Robo1 protein was detected by SPR (Surface Plasmon resonance BIAcore 200) method. […] Kinetic measurements were performed according to the method referred by Canziani et al. (2004, Anal. Biochem. 325: 301-307). Furthermore, the affinity of the Slit2N protein (Slit2N is a protein having a molecular weight of about 120 kDa at the N-terminus of the Slit2 protein) to Robo1 protein was also determined by the same method.

[5] = biological target: T1, Robo1 protein (ORIGEN, Art. No.: …); assay: SPR (BIAcore), Robo1 bound to CM5 chip; column headed 'Kd(nM)'
Description: as §1

[6] = biological target: T1, Robo1 protein (ORIGEN, Art. No.: …); assay: SPR (BIAcore), Robo1 bound to CM5 chip
Description: as §1

Chain of Robo1 protein (ORIGEN, Art. No.: TP327713) (UniProt Q9Y6N7) (Q9Y6N7 other isoform, or with tags, fused parts or gaps limits assumed): as above

Kd [1]: 2.8 nM
EC50 [2]: 215 nM
kon [3]: 177000 M⁻¹ s⁻¹
Molecule: Slit2D2-HSA (as disclosed in Patent Application PCT/CN2015/092079) (from UniProt O94813 271-479; P02768 25-609)

koff [4]: 0.00339 s⁻¹
Kd [5]: 4.5 nM
kon [6]: 744000 M⁻¹ s⁻¹
B1: Slit2N protein (ligand, UniProt O94813 31-1121, looked up)
chain: QCSCSGSTVDCHGLALRSVPRNIPRNTERLDLNGNNITRITKTDFAGLRHLRVLQLMENKISTIERGAFQDLKELERLRLNRNHLQLFPELLFLGTAKLYRLDLSENQIQAIPRKAFRGAVDIKNLQLDYNQISCIEDGAFRALRDLEVLTLNNNNITRLSVASFNHMPKLRTFRLHSNNLYCDCHLAWLSDWLRQRPRVGLYTQCMGPSHLRGHNVAEVQKREFVCSGHQSFMAPSCSVLHCPAACTCSNNIVDCRGKGLTEIPTNLPETITEIRLEQNTIKVIPPGAFSPYKKLRRIDLSNNQISELAPDAFQGLRSLNSLVLYGNKITELPKSLFEGLFSLQLLLLNANKINCLRVDAFQDLHNLNLLSLYDNKLQTIAKGTFSPLRAIQTMHLAQNPFICDCHLKWLADYLHTNPIETSGARCTSPRRLANKRIGQIKSKKFRCSAKEQYFIPGTEDYRSKLSGDCFADLACPEKCRCEGTTVDCSNQKLNKIPEHIPQYTAELRLNNNEFTVLEATGIFKKLPQLRKINFSNNKITDIEEGAFEGASGVNEILLTSNRLENVQHKMFKGLESLKTLMLRSNRITCVGNDSFIGLSSVRLLSLYDNQITTVAPGAFDTLHSLSTLNLLANPFNCNCYLAWLGEWLRKKRIVTGNPRCQKPYFLKEIPIQDVAIQDFTCDDGNDDNSCSPLSRCPTECTCLDTVVRCSNKGLKVLPKGIPRDVTELYLDGNQFTLVPKELSNYKHLTLIDLSNNRISTLSNQSFSNMTQLLTLILSYNRLRCIPPRTFDGLKSLRLLSLHGNDISVVPEGAFNDLSALSHLAIGANPLYCDCNMQWLSDWVKSEYKEPGIARCAGPGEMADKLLLTTPSKKFTCQGPVDVNILAKCNPCLSNPCKNDGTCNSDPVDFYRCTCPYGFKGQDCDVPIHACISNPCKHGGTCHLKEGEEDGFWCICADGFEGENCEVNVDDCEDNDCENNSTCVDGINNYTCLCPPEYTGELCEEKLDFCAQDLNPCQHDSKCILTPKGFKCDCTPGYVGEHCDIDFDDCQDNKCKNGAHCTDAVNGYTCICPEGYSGLFCEFSPPMVLPR
